Data: US20240376207A1 (JIANGSU HENGRUI PHARMACEUTICALS, published 2024)
Like-named read-outs stand apart in the source and are kept apart here.

T1: his-tagged cynomolgus monkey PVRIG (cyno-PVRIG-his) recombinant protein (cynomolgus monkey)
T1 construct: expressed in HEK293, purified by Ni-NTA; also called Monkey PVRIG-his; cynomolgus monkey PVRIG recombinant protein
T1 chain: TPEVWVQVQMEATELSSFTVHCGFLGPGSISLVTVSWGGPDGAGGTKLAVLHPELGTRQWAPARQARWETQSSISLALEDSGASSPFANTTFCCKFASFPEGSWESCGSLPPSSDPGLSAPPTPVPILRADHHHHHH

T2: cynomolgus monkey PVRIG expressed on cells (cynomolgus monkey, UniProt A0A2K5WVV8 1-322)
T2 construct: whole, on cells; also called Monkey PVRIG FACS; cells overexpressing cynomolgus monkey PVRIG
T2 sequence: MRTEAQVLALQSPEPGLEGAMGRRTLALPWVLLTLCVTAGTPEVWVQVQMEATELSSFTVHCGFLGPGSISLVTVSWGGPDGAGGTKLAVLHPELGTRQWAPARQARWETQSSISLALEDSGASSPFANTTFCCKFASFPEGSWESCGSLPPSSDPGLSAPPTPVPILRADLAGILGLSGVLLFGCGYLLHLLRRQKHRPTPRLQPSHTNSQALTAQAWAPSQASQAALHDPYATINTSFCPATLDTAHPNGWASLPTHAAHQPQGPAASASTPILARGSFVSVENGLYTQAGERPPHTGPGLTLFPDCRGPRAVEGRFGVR

T3: human TIGIT expressed on cells (human, UniProt Q495A1 22-244)
T3 construct: whole, on cells; also called cells overexpressing human TIGIT
T3 sequence (looked up): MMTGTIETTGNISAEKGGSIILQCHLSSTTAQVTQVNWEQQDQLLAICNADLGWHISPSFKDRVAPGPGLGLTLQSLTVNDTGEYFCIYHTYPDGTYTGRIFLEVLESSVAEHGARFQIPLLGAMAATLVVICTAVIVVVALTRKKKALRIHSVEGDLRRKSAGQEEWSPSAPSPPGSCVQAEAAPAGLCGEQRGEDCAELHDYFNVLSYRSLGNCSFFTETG

T4: human TIGIT recombinant protein (human, UniProt Q495A1 22-141, limits assumed)
T4 construct: construct not described; also called human TIGT recombinant protein
T4 sequence (looked up): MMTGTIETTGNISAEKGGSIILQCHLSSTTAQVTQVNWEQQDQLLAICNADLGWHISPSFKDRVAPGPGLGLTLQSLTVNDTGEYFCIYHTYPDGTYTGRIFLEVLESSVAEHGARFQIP

T5: human TIGIT antigen (AcroBiosystem, TIT-H52H3) (human, UniProt Q495A1 22-141)
T5 sequence (looked up): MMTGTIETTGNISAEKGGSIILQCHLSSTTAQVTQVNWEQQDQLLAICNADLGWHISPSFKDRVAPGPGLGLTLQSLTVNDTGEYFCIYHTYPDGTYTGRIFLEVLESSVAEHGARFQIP


Experiments:
[1] = biological target: T1, his-tagged cynomolgus monkey PVRIG …; assay: ELISA, coated antigen
Procedure: (§1) A human, cynomolgus monkey, or mouse PVRIG protein (at a concentration of 1 μg/mL) was coated on a 96-well microplate at 100 μL per well, and incubated overnight at 4° C. The plate was washed three times with wash buffer at 250 μL per well. For each wash, the plate was shaken for 10 s to ensure adequate cleaning. A blocking solution (PBS+0.05% Tween20+1% BSA) was added at 300 μL/well, and the plate was incubated at room temperature for 1 h. The plate was washed three times with wash buffer at 250 μL per well. For each wash, the plate was shaken for 10 s to ensure adequate cleaning. Dilutions of the test anti-PVRIG antibodies were added at 100 μL/well. The plate was incubated at 37° C. for 1 h. The plate was washed three times with wash buffer at 250 μL per well. The […] anti-human IgG secondary antibody (Sigma, A8667) was added at 100 μL per well. The plate was incubated at 37° C. for 1 h. The plate was washed three times with wash buffer at 250 μL per well. TMB was added at 100 μL/well, and the plate was incubated in the dark for 15 min. 0.16 M sulfuric acid was added at 50 μL/well. The OD values at 450 nm were read by using a Thermo MultiSkanFc microplate reader, and the EC₅₀ values of the binding of the anti-PVRIG antibodies to PVRIG were calculated.
(§2) Binding of the humanized anti-PVRIG/TIGIT bispecific antibodies to human and cynomolgus monkey PVRIG and their blocking of the ligand of human PVRIG were detected according to the methods of Examples 4, 5 and 6.

[2] = biological target: T2, cynomolgus monkey PVRIG expressed on …; assay: FACS, cells overexpressing target
Procedure: (§3) The expression plasmid carrying human or cynomolgus monkey PVRIG gene sequence was transfected into HEK293 cells, and the over-expressing stable transfection monoclonal cell strain was obtained by antibiotic screening and infinite dilution. Overexpressing cells were seeded into a 96-well plate at 2×10⁵ cells/per well. The cells were centrifuged at 300 g for 5 min, the supernatant was then removed, 100 μL of the test antibody was added, and the mixture was incubated at 4° C. for 1 h. The mixture was centrifuged, the supernatant was removed, the plate was washed 3 times with 200 μL of wash buffer (PBS+2% FBS), and then 100 μL of an anti-human IgG secondary antibody (Invitrogen, A-11013) labeled with Alexa Fluor 488 diluted at 1:500 was added. The mixture was incubated at 4° C. for 1 h. The plate was centrifuged, and the supernatant was removed. The plate was washed 3 times with 200 μL of wash buffer (PBS+2% FBS). The cells were resuspended in 100 μL of PBS and tested on a flow cytometer (BD FACS Calibur or BD FACS Canto_II).
as §2

[3] = biological target: T3, human TIGIT expressed on cells; assay: FACS, cells overexpressing target
Procedure: as §3
(§4) The experiments were carried out according to the methods of Example 4, Example 5 and Example 6 (corresponding receptors and ligands were replaced with human TIGIT and human PVR), and the results are shown in Table 27.

[4] = biological target: T3, human TIGIT expressed on cells; assay: FACS, cells overexpressing target; remark: listed apart in the source
Procedure: as §3
(§5) Similarly to Examples 4, 5 and 6, the binding of humanized anti-PVRIG/TIGIT bispecific antibodies to human and cynomolgus monkey TIGIT and blocking of binding of human TIGIT to ligand were detected, where PVRIG protein was replaced with TIGIT and PVRL2 was replaced with PVR.

[5] = biological target: T6, cynomolgus monkey TIGIT expressed on cells (cynomolgus monkey, UniProt A0A7N9I9V4 89-312); assay: FACS, cells overexpressing target
T6 construct: whole, on cells; also called cells overexpressing cynomolgus monkey TIGIT
Procedure: as §3, §5

[6] = biological target: T4, human TIGIT recombinant protein; assay: competition ELISA; human TIGIT, competitor human PVR
Procedure: (§6) The h-PVRIG-mIgG2a Fc protein (at a concentration of 1 μg/mL) was coated on the 96-well microplate at 100 μL per well, and incubated overnight at 4° C. The plate was washed three times with wash buffer at 250 μL per well. For each wash, the plate was shaken for 10 s to ensure adequate cleaning. A blocking solution was added at 300 μL/well, and the plate was incubated at room temperature for 1 h. The plate was washed three times with wash buffer at 250 μL per well. For each wash, the plate was shaken for 10 s to ensure adequate cleaning. 50 μL of diluted test anti-PVRIG antibody and 50 μL of his-tagged ligand PVRL2 were added to each well, and the plate was incubated at 37° C. for 1 h. The plate was washed three times with wash buffer at 250 μL per well. The HRP-labeled anti-his-tagged secondary antibody (Genscrpit) diluted at 1:2000 was added at 100 μL per well. The plate was incubated at 37° C. for 1 h. The plate was washed three times with wash buffer at 250 μL per well. TMB was added at 100 μL/well, and the plate was incubated in the dark for 15 min. 0.16 M sulfuric acid was added at 50 μL/well. OD values at 450 nm were measured using a Thermo MμtLtiSkanFc microplate reader, and the IC₅₀ values of the anti-PVRIG antibodies blocking the binding of PVRIG to PVRL2 were calculated.
as §4

[7] = biological target: T4, human TIGIT recombinant protein; assay: ELISA, coated antigen
Procedure: as §1, §5

[8] = biological target: cynomolgus monkey TIGIT recombinant protein (cynomolgus monkey, UniProt A0A7N9I9V4 89-209); assay: ELISA, coated antigen
Procedure: as §1, §5

[9] = biological target: T4, human TIGIT recombinant protein; assay: competition ELISA; human TIGIT, competitor human PVR; remark: listed apart in the source
Procedure: as §6, §5

[10] = biological target: T4, human TIGIT recombinant protein; assay: ELISA, coated antigen; remark: listed apart in the source
Procedure: as §1, §4

[11] = biological target: T5, human TIGIT antigen (AcroBiosystem, …); assay: SPR (Biacore X100), antibody captured on Protein A chip, 1:1 fit
Text: The affinity of the humanized bispecific antibodies for human PVRIG, cynomolgus monkey PVRIG and human TIGIT was detected using Biacore. Humanized bispecific antibodies were each captured on a Protein A biosensor chip (GE lifesciences, 29127557) of a Biacore instrument (Biacore X100, GE), and then human PVRIG antigen (AcroBiosystem, PVG-H52H4), cynomolgus monkey PVRIG antigen (SEQ ID NO: 1), or human TIGIT antigen (AcroBiosystem, TIT-H52H3) at a series of concentration gradients each flowed over the chip surface. The reaction signals were detected in real time using a Biacore instrument (Biacore X100, GE) to obtain association and dissociation curves. The data obtained from the experiment were fitted using the (1:1) Binding model with the BiacoreX100 evaluation software 2.0 GE to obtain affinity values (see Table 31).

binding result [1] | binding result [2] | EC50 [3] [nM] | EC50 [4] [pM] | EC50 [5] [pM] | IC50 [6] [nM] | EC50 [7] [nM] | EC50 [8] [nM] | IC50 [9] [nM] | EC50 [10] [nM] | Kd [11] [nM] | koff [11] [s⁻¹] | kon [11] [M⁻¹ s⁻¹] | Binder
no binding | no binding | 0.74 | 2.7 | 3 | 0.87 | 0.133 | 0.104 | 0.779 | 0.055 |  |  |  | anti-TIGIT antibody 1708 (antibody, human IgG4 S228P, kappa, V domains shown, human IgG4 subtype with S228P; kappa light chain) VH: EVQLVQSGAEVKKPGASVKVSCKASGYTFTNYWMHWVRQAPGQGLEWMGRIDPDSTGSKYNEKFKTRVTMTRDTSTSTVYMELSSLRSEDTAVYYCAREGAYGYYFDYWGQGTLVTVSS VL: DIQMTQSPSSLSASVGDRVTITCRASENIYSYLAWYQQKPGKSPKLLIYNARTLAEGVPSRFSGSGSGTDFTLTISSLQPEDFATYYCQYHSGSPLPFGGGTKVEIKR
 |  |  | 6 | 11 |  | 0.184 | 0.135 | 1.09 |  |  |  |  | humanized anti-PVRIG/TIGIT bispecific antibody 1708-151H8 (bispecific antibody, human IgG4 S228P, kappa) heavy: not shown light: DIQMTQSPSSLSASVGDRVTITCRASENIYSYLAWYQQKPGKSPKLLIYNARTLAEGVPSRFSGSGSGTDFTLTISSLQPEDFATYYCQYHSGSPLPFGGGTKVEIKRTVAAPSVFIFPPSDEQLKSGTASVVCLLNNFYPREAKVQWKVDNALQSGNSQESVTEQDSKDSTYSLSSTLTLSKADYEKHKVYACEVTHQGLSSPVTKSFNRGEC
 |  |  | 5 | 5 |  | 0.135 | 0.105 | 0.812 |  | 0.0808 | 0.000113 | 1.39e+06 | humanized anti-PVRIG/TIGIT bispecific antibody 1708-39H2 (bispecific antibody, human IgG4 S228P, kappa) heavy: not shown light: DIQMTQSPSSLSASVGDRVTITCRASENIYSYLAWYQQKPGKSPKLLIYNARTLAEGVPSRFSGSGSGTDFTLTISSLQPEDFATYYCQYHSGSPLPFGGGTKVEIKRTVAAPSVFIFPPSDEQLKSGTASVVCLLNNFYPREAKVQWKVDNALQSGNSQESVTEQDSKDSTYSLSSTLTLSKADYEKHKVYACEVTHQGLSSPVTKSFNRGEC
 |  | 1 |  |  | 0.69 |  |  |  | 0.054 |  |  |  | anti-PVRIG/TIGIT bispecific antibody 1708-151-4 (bispecific antibody, human IgG4 S228P, kappa) heavy: not shown light: DIQMTQSPSSLSASVGDRVTITCRASENIYSYLAWYQQKPGKSPKLLIYNARTLAEGVPSRFSGSGSGTDFTLTISSLQPEDFATYYCQYHSGSPLPFGGGTKVEIKRTVAAPSVFIFPPSDEQLKSGTASVVCLLNNFYPREAKVQWKVDNALQSGNSQESVTEQDSKDSTYSLSSTLTLSKADYEKHKVYACEVTHQGLSSPVTKSFNRGECGGGGSGGGGSHVQLVESGGGSVQAGGSLRLSCVASASGFTYRPYCMAWFRQAPGKEREAVAGIDIFGGTTYADSVKGRFTASRDNAGFSLFLQMNDLKPEDTAMYYCAAGDSPDGRCPPLGQGLNYWGQGTQVTVSS
